Patent US20220064329A1 (Novo Nordisk, published 2022)
Residue numbers refer to the chain shown, from its start. Names may count otherwise.

T1: recombinant human activated Factor VII (FVIIa) (human, UniProt P08709 61-212; P08709 213-466, ten glutamate residues of the Gla domain may be gamma-carboxylated)
T1 construct: chains tethered by a disulfide bond; also called Factor VIIa; rFVIIa
T1 sequence 1: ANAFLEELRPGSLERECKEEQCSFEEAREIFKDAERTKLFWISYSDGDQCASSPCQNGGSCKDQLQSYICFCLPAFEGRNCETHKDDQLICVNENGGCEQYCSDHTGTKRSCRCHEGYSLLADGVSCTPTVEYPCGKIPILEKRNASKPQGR
T1 sequence 2: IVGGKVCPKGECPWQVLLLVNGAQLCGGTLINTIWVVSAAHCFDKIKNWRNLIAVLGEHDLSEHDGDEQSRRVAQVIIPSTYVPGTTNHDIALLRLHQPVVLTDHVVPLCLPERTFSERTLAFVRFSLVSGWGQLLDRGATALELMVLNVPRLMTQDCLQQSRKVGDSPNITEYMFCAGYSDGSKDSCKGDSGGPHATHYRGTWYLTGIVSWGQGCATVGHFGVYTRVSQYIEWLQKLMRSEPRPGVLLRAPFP

B1: VH SEQ ID NO 602 / VL SEQ ID NO 326 (antibody, IgG4, V domains shown)
VH: QVQLQESGPGLVKPSQTLSLTCTVSGGSISSDSAWSWIRQPPGKGLEWIGYIQYSGSTNYNPSLKSRVTISVDTSKNQFSLKLSSVTAADTAVYYCARSVNYYGNSFAVGYWGQGTLVTVSS
VL: EIVLTQSPATLSLSPGERATLSCRASQGISDYLHWYQQKPGEAPRLLIKYTSQPATGIPARFSGSGSGTDFTLTISSLEPEDFGVYYCQNGHSFPLTFGAGTKLELK
notes: humanized 11F2; IgG4 S228P/kappa
B2: VH SEQ ID NO 610 / VL SEQ ID NO 406 (antibody, IgG4, V domains shown)
VH: B1 VH with S30T
VL: B1 VL with I29V, H34A, E42Q, T51A, G84A, L106I
notes: as for B1
B3: VH SEQ ID NO 610 / VL SEQ ID NO 494 (antibody, IgG4, V domains shown)
VH: B1 VH with S30T
VL: B1 VL with I29V, E42Q, T51A, F83V, G84A, A100Q, L106I
notes: as for B1
B4: VH SEQ ID NO 610 / VL SEQ ID NO 390 (antibody, IgG4, V domains shown)
VH: B1 VH with S30T
VL: B1 VL with I29V, H34A, T51A, G84A, A100Q, L106I
notes: as for B1
B5: VH SEQ ID NO 610 / VL SEQ ID NO 478 (antibody, IgG4, V domains shown)
VH: B1 VH with S30T
VL: B1 VL with I29V, E42Q, T51A, G84A, N90Q, A100Q, L106I
notes: as for B1
B6: VH SEQ ID NO 610 / VL SEQ ID NO 318 (antibody, IgG4, V domains shown)
VH: B1 VH with S30T
VL: B1 VL with G84A, A100Q, L106I
notes: as for B1
B7: VH SEQ ID NO 610 / VL SEQ ID NO 358 (antibody, IgG4, V domains shown)
VH: B1 VH with S30T
VL: B1 VL with E42Q, G84A, A100Q, L106I
notes: as for B1
B8: VH SEQ ID NO 610 / VL SEQ ID NO 462 (antibody, IgG4, V domains shown)
VH: B1 VH with S30T
VL: B1 VL with I29V, E42Q, T51A, G84A, L106I
notes: as for B1
B9: VH SEQ ID NO 610 / VL SEQ ID NO 446 (antibody, IgG4, V domains shown)
VH: B1 VH with S30T
VL: B1 VL with I29V, H34A, E42Q, G84A, A100Q, L106I
notes: as for B1
B10: VH SEQ ID NO 602 / VL SEQ ID NO 494 (antibody, IgG4, V domains shown)
VH: B1 VH
VL: B1 VL with I29V, E42Q, T51A, F83V, G84A, A100Q, L106I
notes: as for B1
B11: VH SEQ ID NO 602 / VL SEQ ID NO 334 (antibody, IgG4, V domains shown)
VH: B1 VH
VL: B1 VL with E42Q, T51A, G84A, A100Q, L106I
notes: as for B1
B12: VH SEQ ID NO 602 / VL SEQ ID NO 390 (antibody, IgG4, V domains shown)
VH: B1 VH
VL: B1 VL with I29V, H34A, T51A, G84A, A100Q, L106I
notes: as for B1
B13: VH SEQ ID NO 602 / VL SEQ ID NO 502 (antibody, IgG4, V domains shown)
VH: B1 VH
VL: B1 VL with I29V, E42Q, G84A, A100Q, L106I
notes: as for B1
B14: VH SEQ ID NO 610 / VL SEQ ID NO 334 (antibody, IgG4, V domains shown)
VH: B1 VH with S30T
VL: B1 VL with E42Q, T51A, G84A, A100Q, L106I
notes: as for B1
B15: VH SEQ ID NO 602 / VL SEQ ID NO 350 (antibody, IgG4, V domains shown)
VH: B1 VH
VL: B1 VL with E42Q, G84A
notes: as for B1
B16: VH SEQ ID NO 610 / VL SEQ ID NO 342 (antibody, IgG4, V domains shown)
VH: B1 VH with S30T
VL: B1 VL with E42Q, T69R, G84A
notes: as for B1
B17: VH SEQ ID NO 610 / VL SEQ ID NO 310 (antibody, IgG4, V domains shown)
VH: B1 VH with S30T
VL: B1 VL with H34A, E42Q, T51A, G84A, A100Q, L106I
notes: as for B1
B18: VH SEQ ID NO 602 / VL SEQ ID NO 470 (antibody, IgG4, V domains shown)
VH: B1 VH
VL: B1 VL with I29V, E42Q, T51A, G84A, A100Q, L106I
notes: as for B1
B19: VH SEQ ID NO 602 / VL SEQ ID NO 478 (antibody, IgG4, V domains shown)
VH: B1 VH
VL: B1 VL with I29V, E42Q, T51A, G84A, N90Q, A100Q, L106I
notes: as for B1
B20: VH SEQ ID NO 610 / VL SEQ ID NO 454 (antibody, IgG4, V domains shown)
VH: B1 VH with S30T
VL: B1 VL with I29V, T51A, G84A, A100Q, L106I
notes: as for B1
B21: VH SEQ ID NO 602 / VL SEQ ID NO 382 (antibody, IgG4, V domains shown)
VH: B1 VH
VL: B1 VL with I29L, T51A, G84A, A100Q, L106I
notes: as for B1
B22: VH SEQ ID NO 602 / VL SEQ ID NO 414 (antibody, IgG4, V domains shown)
VH: B1 VH
VL: B1 VL with I29V, H34A, E42Q, T51A, G84A, A100Q, L106I
notes: as for B1
B23: VH SEQ ID NO 610 / VL SEQ ID NO 470 (antibody, IgG4, V domains shown)
VH: B1 VH with S30T
VL: B1 VL with I29V, E42Q, T51A, G84A, A100Q, L106I
notes: as for B1
B24: VH SEQ ID NO 602 / VL SEQ ID NO 486 (antibody, IgG4, V domains shown)
VH: B1 VH
VL: B1 VL with I29V, E42Q, T51A, A100Q, L106I
notes: as for B1
B25: VH SEQ ID NO 602 / VL SEQ ID NO 366 (antibody, IgG4, V domains shown)
VH: B1 VH
VL: B1 VL with I29L, H34A, T51A, G84A, A100Q, L106I
notes: as for B1
B26: VH SEQ ID NO 610 / VL SEQ ID NO 438 (antibody, IgG4, V domains shown)
VH: B1 VH with S30T
VL: B1 VL with I29V, H34A, E42Q, T51A, F83V, G84A, A100Q, L106I
notes: as for B1
B27: VH SEQ ID NO 610 / VL SEQ ID NO 486 (antibody, IgG4, V domains shown)
VH: B1 VH with S30T
VL: B1 VL with I29V, E42Q, T51A, A100Q, L106I
notes: as for B1
B28: VH SEQ ID NO 602 / VL SEQ ID NO 462 (antibody, IgG4, V domains shown)
VH: B1 VH
VL: B1 VL with I29V, E42Q, T51A, G84A, L106I
notes: as for B1
B29: VH SEQ ID NO 602 / VL SEQ ID NO 454 (antibody, IgG4, V domains shown)
VH: B1 VH
VL: B1 VL with I29V, T51A, G84A, A100Q, L106I
notes: as for B1
B30: VH SEQ ID NO 602 / VL SEQ ID NO 438 (antibody, IgG4, V domains shown)
VH: B1 VH
VL: B1 VL with I29V, H34A, E42Q, T51A, F83V, G84A, A100Q, L106I
notes: as for B1
B31: VH SEQ ID NO 618 / VL SEQ ID NO 334 (antibody, IgG4, V domains shown)
VH: B1 VH with G27Y, P41F, V72R, Y111P
VL: B1 VL with E42Q, T51A, G84A, A100Q, L106I
notes: as for B1
B32: VH SEQ ID NO 602 / VL SEQ ID NO 358 (antibody, IgG4, V domains shown)
VH: B1 VH
VL: B1 VL with E42Q, G84A, A100Q, L106I
notes: as for B1
B33: VH SEQ ID NO 610 / VL SEQ ID NO 430 (antibody, IgG4, V domains shown)
VH: B1 VH with S30T
VL: B1 VL with I29V, H34A, E42Q, T51A, A100Q, L106I
notes: as for B1
B34: VH SEQ ID NO 610 / VL SEQ ID NO 502 (antibody, IgG4, V domains shown)
VH: B1 VH with S30T
VL: B1 VL with I29V, E42Q, G84A, A100Q, L106I
notes: as for B1
B35: VH SEQ ID NO 618 / VL SEQ ID NO 318 (antibody, IgG4, V domains shown)
VH: B1 VH with G27Y, P41F, V72R, Y111P
VL: B1 VL with G84A, A100Q, L106I
notes: as for B1
B36: VH SEQ ID NO 610 / VL SEQ ID NO 366 (antibody, IgG4, V domains shown)
VH: B1 VH with S30T
VL: B1 VL with I29L, H34A, T51A, G84A, A100Q, L106I
notes: as for B1
B37: VH SEQ ID NO 602 / VL SEQ ID NO 430 (antibody, IgG4, V domains shown)
VH: B1 VH
VL: B1 VL with I29V, H34A, E42Q, T51A, A100Q, L106I
notes: as for B1
B38: VH SEQ ID NO 618 / VL SEQ ID NO 326 (antibody, IgG4, V domains shown)
VH: B1 VH with G27Y, P41F, V72R, Y111P
VL: B1 VL
notes: as for B1
B39: VH SEQ ID NO 610 / VL SEQ ID NO 350 (antibody, IgG4, V domains shown)
VH: B1 VH with S30T
VL: B1 VL with E42Q, G84A
notes: as for B1
B40: VH SEQ ID NO 610 / VL SEQ ID NO 382 (antibody, IgG4, V domains shown)
VH: B1 VH with S30T
VL: B1 VL with I29L, T51A, G84A, A100Q, L106I
notes: as for B1
B41: VH SEQ ID NO 618 / VL SEQ ID NO 310 (antibody, IgG4, V domains shown)
VH: B1 VH with G27Y, P41F, V72R, Y111P
VL: B1 VL with H34A, E42Q, T51A, G84A, A100Q, L106I
notes: as for B1
B42: VH SEQ ID NO 602 / VL SEQ ID NO 406 (antibody, IgG4, V domains shown)
VH: B1 VH
VL: B1 VL with I29V, H34A, E42Q, T51A, G84A, L106I
notes: as for B1
B43: VH SEQ ID NO 610 / VL SEQ ID NO 414 (antibody, IgG4, V domains shown)
VH: B1 VH with S30T
VL: B1 VL with I29V, H34A, E42Q, T51A, G84A, A100Q, L106I
notes: as for B1
B44: VH SEQ ID NO 602 / VL SEQ ID NO 342 (antibody, IgG4, V domains shown)
VH: B1 VH
VL: B1 VL with E42Q, T69R, G84A
notes: as for B1
B45: VH SEQ ID NO 610 / VL SEQ ID NO 326 (antibody, IgG4, V domains shown)
VH: B1 VH with S30T
VL: B1 VL
notes: as for B1

Each binder was assayed against T1, recombinant human activated Factor VII … (assay: BLI (Fortebio)).

| Binder | Kd |
| --- | --- |
| B1 | 8.8 nM |
| B2 | 480 nM |
| B3 | 17 nM |
| B4 | 380 nM |
| B5 | 33 nM |
| B6 | 10 nM |
| B7 | 11 nM |
| B8 | 17 nM |
| B9 | 49 nM |
| B10 | 14 nM |
| B11 | 10 nM |
| B12 | 370 nM |
| B13 | 14 nM |
| B14 | 13 nM |
| B15 | 10 nM |
| B16 | 16 nM |
| B17 | 80 nM |
| B18 | 13 nM |
| B19 | 24 nM |
| B20 | 16 nM |
| B21 | 14 nM |
| B22 | 310 nM |
| B23 | 16 nM |

| Binder | Kd |
| --- | --- |
| B24 | 15 nM |
| B25 | 51 nM |
| B26 | 620 nM |
| B27 | 17 nM |
| B28 | 15 nM |
| B29 | 13 nM |
| B30 | 600 nM |
| B31 | 1.3 nM |
| B32 | 9.2 nM |
| B33 | 1500 nM |
| B34 | 17 nM |
| B35 | 1.1 nM |
| B36 | 330 nM |
| B37 | 590 nM |
| B38 | 1.1 nM |
| B39 | 11 nM |
| B40 | 17 nM |
| B41 | 12 nM |
| B42 | 90 nM |
| B43 | 780 nM |
| B44 | 14 nM |
| B45 | 11 nM |
